Entries after “also recorded” stand apart in the source; their conditions may differ.
Assays:
tPA = assay: Plasminogen activator activity, chromogenic assay without fibrin, activation by tPA; format: biochemical, human; conditions: FIG. 2D
Procedure: (§1) Plasminogen Activator Activity
(§2) Plasminogen activator activity was determined by adding tPA (50 nM) or uPA (20 nM), to a reaction mixture containing Glu-plasminogen and the plasmin chromogenic substrate Spectrazyme PL (100 μM) in phosphate-buffered saline (PBS) at 37° C., and the light absorbance at 405 nm was measured continuously over time. The initial velocities of plasmin generation at the different conditions were calculated from the change in the A405 nm over time. The initial velocity of the reaction at each plasminogen concentration was obtained by calculating the change in the rate of A405 over different time intervals and the results were expressed as the change in optical density (ΔOD) per minute, which represents the slope of the initial velocity of plasminogen activation (Higazi A et al., J Biol Chem. (1995), 270(29):17375-80).

WT-tPA = assay: Fibrinolysis assay in human plasma derived clots, lysis by WT-tPA; format: biochemical
Procedure: (§3) Fibrinolysis Assay in Human Plasma Derived Clots
(§4) Clots were formed by placing human plasma (200 μL) in 16-mm diameter tissue culture wells flowed by adding thrombin (0.4 U/mL final concentration). Fibrinolysis was measured as described in Higazi A A et al., Blood (1998), 92(6):2075-83). Briefly, 10 μL tPA or uPA were placed over the plasma clots for 2 hours at 37° C., photographed and the diameter of the wholes were determined.

reteplase = reteplase (Homo sapiens, UniProt P00750); assay: Fibrinolysis assay in human plasma derived clots, lysis by reteplase; format: biochemical; conditions: reteplase 20 nM, mutant 10 nM, FIG. 2B
Procedure: as §3, §4

WT mice subjected to CHI = assay: Closed head injury (CHI) model of TBI in WT mice; format: in vivo, mouse; conditions: for neuroprotection (neurological severity score, NSS): given 2 hrs after CHI
Procedure: Eight to twelve weeks old C57 mice obtained from Harlan, Israel. Mice were administered standard laboratory chow and water ad libitum, and kept in controlled temperature and light conditions. Animal experiments were carried out according to the guidelines of the Hebrew University-Institutional Committee for Care and Use of Laboratory Animals, and with the committee's approval.
Closed Head Injury (CHI) Model
Head trauma was induced by using a modified weight-drop device, as previously described (Chen Y. et al. (1996) J. Neurotrauma, 13:557-568). Briefly, after induction of ether anesthesia, a midline longitudinal incision was made, the skin was retracted and the skull was exposed. The left anterior frontal area was identified and a Teflon tipped cone (2-mm diameter) was placed 1 mm lateral to the midline, in the midcoronal plane. The head was held in place manually and a 75-g weight was dropped on the cone from a height of 18 cm, resulting in focal injury to the left hemisphere. After trauma, the mice received supporting oxygenation with 95% 02 for no longer than 2 min and were then returned to their cages. In sham controls only anesthesia and skin incision were carried out.

uPA [1] = target: T1, uPA (Homo sapiens, UniProt P00749); assay: Plasminogen activator activity, chromogenic assay without fibrin, activation by uPA; format: biochemical; conditions: FIG. 2D
T1 construct: Single-chain urokinase (uPA) was purified, characterized as previously reported; made in house
Procedure: as §1, §2

uPA [2] = target: T1, uPA; assay: Fibrinolysis assay in human plasma derived clots, lysis by uPA; format: biochemical; conditions: uPA 50 nM; mutant 50 nM; FIG. 2A, 2B
Procedure: as §3, §4

[3] = mutant 100 nM added together with TA

Sequence of WT-tPA (P00750 36-562): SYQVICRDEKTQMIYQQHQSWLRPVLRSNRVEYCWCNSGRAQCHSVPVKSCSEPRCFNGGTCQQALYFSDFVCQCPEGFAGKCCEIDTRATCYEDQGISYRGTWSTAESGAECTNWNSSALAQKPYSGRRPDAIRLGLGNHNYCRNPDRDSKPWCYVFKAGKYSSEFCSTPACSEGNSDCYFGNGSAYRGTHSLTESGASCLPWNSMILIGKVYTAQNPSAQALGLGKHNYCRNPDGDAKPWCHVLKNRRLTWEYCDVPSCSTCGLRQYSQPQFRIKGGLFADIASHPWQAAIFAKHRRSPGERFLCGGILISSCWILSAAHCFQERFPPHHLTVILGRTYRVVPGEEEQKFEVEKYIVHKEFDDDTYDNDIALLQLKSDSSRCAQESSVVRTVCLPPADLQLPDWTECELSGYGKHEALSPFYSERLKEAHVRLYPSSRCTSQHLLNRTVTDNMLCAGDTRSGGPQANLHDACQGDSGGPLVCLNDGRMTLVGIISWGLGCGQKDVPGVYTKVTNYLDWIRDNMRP

B1: tPA-S^481A-DS: tPA double mutant, Ser481 to Ala and KHRR299-302 to AAAA (PAI-1 docking site); SEQ ID NO. 2 or 13 (protein, listed as Homo sapiens)
chain: GARSYQVICRDEKTQMIYQQHQSWLRPVLRSNRVEYCWCNSGRAQCHSVPVKSCSEPRCFNGGTCQQALYFSDFVCQCPEGFAGKCCEIDTRATCYEDQGISYRGTWSTAESGAECTNWNSSALAQKPYSGRRPDAIRLGLGNHNYCRNPDRDSKPWCYVFKAGKYSSEFCSTPACSEGNSDCYFGNGSAYRGTHSLTESGASCLPWNSMILIGKVYTAQNPSAQALGLGKHNYCRNPDGDAKPWCHVLKNRRLTWEYCDVPSCSTCGLRQYSQPQFRIKGGLFADIASHPWQAAIFAAAAASPGERFLCGGILISSCWILSAAHCFQERFPPHHLTVILGRTYRVVPGEEEQKFEVEKYIVHKEFDDDTYDNDIALLQLKSDSSRCAQESSVVRTVCLPPADLQLPDWTECELSGYGKHEALSPFYSERLKEAHVRLYPSSRCTSQHLLNRTVTDNMLCAGDTRSGGPQANLHDACQGDAGGPLVCLNDGRMTLVGIISWGLGCGQKDVPGVYTKVTNYLDWIRDNMRP
notes: tPA double mutant, Ser481 to Ala and KHRR299-302 to AAAA (PAI-1 docking site); 2 or 13
- plasminogen activation by tPA in the absence of fibrin, in the presence of TA (tPA; [3]): inhibited the plasminogen activation induced by tPA
- plasminogen activation by tPA in the absence of fibrin (change in OD per minute) (tPA; plasminogen 500 nM, WT-tPA 50 nM, mutants 100 nM or TA 200 nM alone): Neither tPA-S^481A nor tPA-S^481A-DS inhibited
- potency as inhibitor of fibrinolysis compared with TA (WT-tPA; TA tested at its maximal inhibitory concentration, FIG. 2B): more potent inhibitors of fibrinolysis than TA
- lysis of human plasma derived clots by WT-tPA (WT-tPA; WT-tPA 20 nM, mutant 50 nM, FIG. 2A, 2B): Identical anti-fibrinolytic activity; also recorded: inhibited
- clot lysis induced by reteplase (reteplase): inhibit the clot lysis induced by reteplase
- intracerebral hemorrhage increased by injected WT-tPA post CHI (WT mice subjected to CHI; WT mice given WT-tPA 5 mg/kg immediately after CHI plus equimolar mutant): could be inhibited
- plasma levels of d-Dimers post CHI (WT mice subjected to CHI; WT mice, 1 mg/kg IV, measured 2 hours after CHI, FIG. 4A, 1 mg/kg): significantly attenuated the increase in d-Dimers; also recorded: had the same effect on d-Dimers and post TBI thrombocytopenia
- platelet counts / thrombocytopenia post CHI (WT mice subjected to CHI; WT mice, 1 mg/kg IV, measured 2 hours after CHI, FIG. 4B, 1 mg/kg): prevented the development of thrombocytopenia; also recorded: had the same effect on d-Dimers and post TBI thrombocytopenia
- CSF fibrinolytic activity post CHI (WT mice subjected to CHI; WT mice, IV after CHI, CSF obtained 2 hours after CHI, tested on plasma derived clots): inhibited CSF fibrinolytic activity
- intracerebral hemorrhage (MRI, extravasation of Hgb) post CHI (WT mice subjected to CHI; WT mice, IV immediately after or 2 hrs after CHI, Hgb at 2 or 8 hrs, MRI at 24 hrs): significantly attenuated the expansion of intracerebral hemorrhage; also recorded: decreased ICH to the same extent as tPA-S^481A
- inhibition of intracerebral hemorrhage compared with combination of TA and aprotinin (WT mice subjected to CHI; combination in optimal concentrations, FIG. 3B): comparable to the inhibition induced by a combination of TA and aprotinin
- neuroprotection (neurological severity score, NSS) (WT mice subjected to CHI; FIG. 5): the difference in neuroprotection provided by the two tPA variants vanished
- neuroprotection (neurological severity score, NSS) (WT mice subjected to CHI; FIG. 5, listed as tPA^Ser481Ala-DS): lower neurological severity scores (NSS)
- neuroprotection (neurological severity score, NSS, 24 hours after CHI) (WT mice subjected to CHI; given IV immediately after CHI, 1 mg/kg, FIG. 5): provided less neuroprotection than tPA-S^481A
- potency as inhibitor of intracerebral hemorrhage compared with TA or aprotinin (WT mice subjected to CHI; optimal concentrations of TA or aprotinin, FIG. 3B): more potent inhibitors of intracerebral hemorrhage than optimal concentrations of TA or aprotinin
- plasminogen activation by uPA in the absence of fibrin, in the presence of TA (uPA [1]; [3]): inhibited the activation of plasminogen by uPA
- plasminogen activation by uPA in the absence of fibrin (change in OD per minute) (uPA [1]; plasminogen 500 nM, uPA 20 nM, mutants 100 nM or TA 200 nM alone): Neither tPA-S^481A nor tPA-S^481A-DS inhibited
- lysis of human plasma derived clots by uPA (uPA [2]): Identical anti-fibrinolytic activity; also recorded: inhibited
